Values of other authors as cited in paper PMC3773255.

Target: E-cadherin EC1-2 (UniProt P12830)

- Kd: 97 µM
Substance: E-cadherin EC1-2 (from UniProt P12830)
